Experimental data published in patent US20240024480A1 (MIE UNIVERSITY, published 2024).

Target: HLA-A24 PRAMEp301-309 pMHC complex (human)
Assay: SPR, Biacore X100, Biotin CAPture Kit; A24 PRAMEp301-309 immobilised as ligand, scFv-pp at 31.25-500 nM, global fit

B1: #98 scFvCL-pp (scFv)
chain: QVQLVQSGAEVKKPGSSVKVSCKASGGTFSSYAISWVRQAPGQGLEWMGGIIPIFGTANYAQKFQGRVTITADESTGTAYMELSSLRSEDTAVYYCARHHSNYYYYGMDVWGQGTTVTVSRSYELTQPLSVSVALGQTARITCGGNNIGSKNVHWYQQKPGQAPVLVIYRDSNRPSGIPERFSGSNSGNTATLTISRAQAGDEADYYCQVWDSSHVFGTGTKVTVL
Kd: 5.3 nM
